Measurements: paper PMC3325275, “Molecular Mechanism Underlying the Interaction of Typical Sac10b Family Proteins with DNA” (PLoS ONE, 2012)
Substitutions are numbered along the chain they refer to.

How the values were obtained:
[1] = tested on: Mth10b I39R (Methanobacterium thermoautotrophicum ΔH); test: SPR; details: SPR (BIAcore 3000, SA chip): 20 mM Tris, 1 mM EDTA, 0.005% Tween20, pH 7.5, with 0, 0.1 or 0.3 M NaCl, 25°C
[2] = tested on: Mth10b N11K (Methanobacterium thermoautotrophicum ΔH); test: SPR; details: SPR (BIAcore 3000, SA chip): 20 mM Tris, 1 mM EDTA, 0.005% Tween20, pH 7.5, with 0, 0.1 or 0.3 M NaCl, 25°C
[3] = tested on: Mth10b N11KI39RT77R (Methanobacterium thermoautotrophicum ΔH); test: SPR; details: SPR (BIAcore 3000, SA chip): 20 mM Tris, 1 mM EDTA, 0.005% Tween20, pH 7.5, with 0, 0.1 or 0.3 M NaCl, 25°C
[4] = tested on: Mth10b T77R (Methanobacterium thermoautotrophicum ΔH); test: SPR; details: no NaCl; apparent KD; SPR (BIAcore 3000, SA chip): 20 mM Tris, 1 mM EDTA, 0.005% Tween20, pH 7.5, with 0, 0.1 or 0.3 M NaCl, 25°C
[5] = target: T1, Mth10b N11KI39RT77R N11K;I39R;T77R (Methanobacterium thermoautotrophicum ΔH) (UniProt O27527); test: SPR; details: SPR (BIAcore 3000, SA chip): 20 mM Tris, 1 mM EDTA, 0.005% Tween20, pH 7.5, with 0, 0.1 or 0.3 M NaCl, 25°C
T1 sequence: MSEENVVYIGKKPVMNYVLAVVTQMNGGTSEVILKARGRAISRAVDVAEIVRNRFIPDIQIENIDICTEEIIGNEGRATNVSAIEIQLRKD

[6] = target: T2, Mth10b T77R T77R (Methanobacterium thermoautotrophicum ΔH) (UniProt O27527); test: SPR; details: SPR (BIAcore 3000, SA chip): 20 mM Tris, 1 mM EDTA, 0.005% Tween20, pH 7.5, with 0, 0.1 or 0.3 M NaCl, 25°C
T2 sequence: T1 sequence with K11N, R39I

[7] = target: T3, Mth10b wild type (Methanobacterium thermoautotrophicum ΔH) (UniProt O27527); test: SPR; details: SPR (BIAcore 3000, SA chip): 20 mM Tris, 1 mM EDTA, 0.005% Tween20, pH 7.5, with 0, 0.1 or 0.3 M NaCl, 25°C
T3 sequence: T1 sequence with K11N, R39I, R77T

[8] = target: the molecule itself; test: crystal structure; purified Mth10b at ~10 mg/ml in 10 mM HEPES pH 7.2, 150 mM NaCl; hanging drop at 4°C over 0.1 M NaCl, 1.6 M (NH4)2SO4, 0.1 M HEPES pH 7.5; 2.2 Å; dimer formed about a crystallographic two-fold axis
[9] = 0.1 M NaCl, slight cooperativity

110 bp mth10b fragment
Kd [1, 9]: 6.5 µM | Kd ([1]; no NaCl, apparent KD): 0.26 µM | Kd ([2]; 0.1 M NaCl, marked cooperativity): 30 µM | Kd ([2]; no NaCl, apparent KD): 2.1 µM | Kd [3, 9]: 0.7 µM | fold decrease in affinity (fold lower affinity than in 0.1 M NaCl) ([3]; 0.3 M NaCl, high cooperativity): 70 | Kd [4]: 16 µM

GTGATGTCAGAGGAGAATGTAGTATACATCGGAAACAAGCCTGTAATGAACTATGTTCTGGCCGTGGTTACTCAGATGAACGGTGGGACCAGTGAAGTGATCCTTAAAGC (double strand) [110 bp mth10b fragment]
Kd [5]: 0.7 µM | Kd [6]: 16 µM | binding [7]: no binding

B1: Mth10b from Methanobacterium thermoautotrophicum ΔH (natural protein, UniProt O27527 1-91, looked up)
chain: T1 sequence with K11N, R39I, R77T
notes: Mth10b, atypical Sac10b (Alba) family member of Methanobacterium thermoautotrophicum ΔH, gene mth10b (MTH1483); 91 residues in total, C-terminal residue Asp91; expressed from pET11a-mth10b; the structure model covers 86 of the 91 residues; also called wild type Mth10b; source: E. coli BL21 (DE3), purified
stoichiometry N [8]: 2
